Laboratory results published in patent publication US20020025558A1.

Target: human MADr3 (human)
Experiment: cell-based or functional assay

- signal to noise ratio of 33P phosphorylation at 0.01 units of TGF-β receptor, MADr3 coated at 750 ng/well: 50
- signal to noise ratio of 33P phosphorylation on MADr3-coated FlashPlate: > 10
Substance: TGF-β receptor
